These results are taken from article PMC4466810 (2015).

The target in this experiment is T1, VEGF-A (VEGF165) (Homo sapiens, UniProt P15692).
T1 chain: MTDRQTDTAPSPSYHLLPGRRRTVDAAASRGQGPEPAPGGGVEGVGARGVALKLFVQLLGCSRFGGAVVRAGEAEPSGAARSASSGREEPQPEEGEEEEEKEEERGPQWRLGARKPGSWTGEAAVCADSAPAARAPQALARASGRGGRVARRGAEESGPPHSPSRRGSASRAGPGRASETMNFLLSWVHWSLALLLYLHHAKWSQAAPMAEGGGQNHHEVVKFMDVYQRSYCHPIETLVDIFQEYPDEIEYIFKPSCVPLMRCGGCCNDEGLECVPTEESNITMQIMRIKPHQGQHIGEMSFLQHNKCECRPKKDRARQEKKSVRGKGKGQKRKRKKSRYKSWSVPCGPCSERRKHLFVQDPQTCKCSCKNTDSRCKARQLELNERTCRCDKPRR
The experiment in a line: equilibrium binding assay (ELISA of unbound blocker).

As a reminder, the Kd is a measure of binding affinity in units of concentration. Read a high Kd as weaker binding.

B1: HB-002.1 (VEGFR1 D2-Fc fusion) 129-228 (protein)
chain: SDTGRPFVEMYSEIPEIIHMTEGRELVIPCRVTSPNITVTLKKFPLDTLIPDGKRIIWDSRKGFIISNATYKEIGLLTCEATVNGHLYKTNYLTHRQTNT
modifications: fused to human IgG1 Fc
For B1, the Kd amounted to 0.18 nM.
